B1: Cullin-9, residues 2234 to 2275; numbered along this chain, Q8IWT3 (parent)
chain: KRCPSCQAPIEKNEGCLHMTCAKCNHGFCWRCLKSWKPNHKD

± gives the uncertainty stated by the source.

This data set covers variants of B1. Kind of data set: abundance fitness (aPCA) (normalised: wild type 0, dead -1); higher = more abundant; growth selection in yeast, the domain comes from the species named. Particulars: Homo sapiens.
KRCPSCQGPIEKNEGCLHMTCAKCNHGFCWRCLKSWKPNHKD [A8G]: the abundance fitness stood at 0.023 ± 0.074.

As to KRCPSCQNPIEKNEGCLHMTCAKCNHGFCWRCLKSWKPNHKD [A8N], the abundance fitness is 0.305 ± 0.22.

For the variant KRCPSCQRPIEKNEGCLHMTCAKCNHGFCWRCLKSWKPNHKD [A8R], the abundance fitness was -0.153 ± 0.072.

In the case of KRCPSCQKPIEKNEGCLHMTCAKCNHGFCWRCLKSWKPNHKD [A8K], the abundance fitness was -0.006 ± 0.13.

Turning to KRCPSCQVPIEKNEGCLHMTCAKCNHGFCWRCLKSWKPNHKD [A8V], the abundance fitness was -0.231 ± 0.083.

KRCPSCQMPIEKNEGCLHMTCAKCNHGFCWRCLKSWKPNHKD [A8M]: the abundance fitness was -0.155 ± 0.1.

Regarding KRCPSCQCPIEKNEGCLHMTCAKCNHGFCWRCLKSWKPNHKD [A8C], the abundance fitness was -0.213 ± 0.12.

As for KRCPSCQQPIEKNEGCLHMTCAKCNHGFCWRCLKSWKPNHKD [A8Q], the abundance fitness was 0.014 ± 0.11.

On to KRCPSCQTPIEKNEGCLHMTCAKCNHGFCWRCLKSWKPNHKD [A8T], for which the abundance fitness is -0.027 ± 0.11.

As for KRCPSCQYPIEKNEGCLHMTCAKCNHGFCWRCLKSWKPNHKD [A8Y], the abundance fitness is -0.005 ± 0.14.

KRCPSCQPPIEKNEGCLHMTCAKCNHGFCWRCLKSWKPNHKD [A8P]: the abundance fitness was -0.555 ± 0.28.

Consider KRCPSCQIPIEKNEGCLHMTCAKCNHGFCWRCLKSWKPNHKD [A8I], for which the abundance fitness is -0.341 ± 0.27.

Turning to KRCPSCQDPIEKNEGCLHMTCAKCNHGFCWRCLKSWKPNHKD [A8D], the abundance fitness was -0.284 ± 0.12.

Regarding KRCPSCQLPIEKNEGCLHMTCAKCNHGFCWRCLKSWKPNHKD [A8L], the abundance fitness is -0.256 ± 0.083.

Turning to KRCPSCQFPIEKNEGCLHMTCAKCNHGFCWRCLKSWKPNHKD [A8F], the abundance fitness is -0.01 ± 0.13.

Consider KRCPSCQSPIEKNEGCLHMTCAKCNHGFCWRCLKSWKPNHKD [A8S], for which the abundance fitness is -0.058 ± 0.085.

In the case of KRCPYCQAPIEKNEGCLHMTCAKCNHGFCWRCLKSWKPNHKD [S5Y], the abundance fitness was -0.291 ± 0.17.

Take KRCPLCQAPIEKNEGCLHMTCAKCNHGFCWRCLKSWKPNHKD [S5L]: the abundance fitness is -0.121 ± 0.081.

As to KRCPVCQAPIEKNEGCLHMTCAKCNHGFCWRCLKSWKPNHKD [S5V], the abundance fitness stood at 0.259 ± 0.078.

Consider KRCPMCQAPIEKNEGCLHMTCAKCNHGFCWRCLKSWKPNHKD [S5M], for which the abundance fitness was 0.395 ± 0.11.

Take KRCPPCQAPIEKNEGCLHMTCAKCNHGFCWRCLKSWKPNHKD [S5P]: the abundance fitness is -0.401 ± 0.1.

For KRCPTCQAPIEKNEGCLHMTCAKCNHGFCWRCLKSWKPNHKD [S5T], the abundance fitness was determined as 0.224 ± 0.087.

As to KRCPWCQAPIEKNEGCLHMTCAKCNHGFCWRCLKSWKPNHKD [S5W], the abundance fitness turned out to be 0.313 ± 0.085.

Take KRCPQCQAPIEKNEGCLHMTCAKCNHGFCWRCLKSWKPNHKD [S5Q]: the abundance fitness is 0.31 ± 0.095.

On to KRCPSCQAFIEKNEGCLHMTCAKCNHGFCWRCLKSWKPNHKD [P9F], for which the abundance fitness is -0.373 ± 0.21.

For KRCPSCQAAIEKNEGCLHMTCAKCNHGFCWRCLKSWKPNHKD [P9A], the abundance fitness was -0.198 ± 0.09.

As for KRCPSCQAEIEKNEGCLHMTCAKCNHGFCWRCLKSWKPNHKD [P9E], the abundance fitness came to 0.051 ± 0.092.

Consider KRCPSCQACIEKNEGCLHMTCAKCNHGFCWRCLKSWKPNHKD [P9C], for which the abundance fitness was -0.074 ± 0.13.

Take KRCPSCQADIEKNEGCLHMTCAKCNHGFCWRCLKSWKPNHKD [P9D]: the abundance fitness was -0.267 ± 0.42.

In the case of KRCPSCQAIIEKNEGCLHMTCAKCNHGFCWRCLKSWKPNHKD [P9I], the abundance fitness is -0.53 ± 0.41.

Regarding KRCPSCQAHIEKNEGCLHMTCAKCNHGFCWRCLKSWKPNHKD [P9H], the abundance fitness is -0.291 ± 0.16.

For KRCPSSQAPIEKNEGCLHMTCAKCNHGFCWRCLKSWKPNHKD [C6S], the abundance fitness is -0.511 ± 0.12.

On to KRCPSFQAPIEKNEGCLHMTCAKCNHGFCWRCLKSWKPNHKD [C6F], for which the abundance fitness was -0.846 ± 0.28.

For the variant KRCPSEQAPIEKNEGCLHMTCAKCNHGFCWRCLKSWKPNHKD [C6E], the abundance fitness is -0.304 ± 0.11.

Regarding KRCPSQQAPIEKNEGCLHMTCAKCNHGFCWRCLKSWKPNHKD [C6Q], the abundance fitness was -0.587 ± 0.12.

Regarding KRCPSWQAPIEKNEGCLHMTCAKCNHGFCWRCLKSWKPNHKD [C6W], the abundance fitness was -0.615 ± 0.15.

As for KRCPSTQAPIEKNEGCLHMTCAKCNHGFCWRCLKSWKPNHKD [C6T], the abundance fitness is -0.347 ± 0.098.

With KRCPSMQAPIEKNEGCLHMTCAKCNHGFCWRCLKSWKPNHKD [C6M], the abundance fitness is -0.447 ± 0.12.

Consider KRCPSLQAPIEKNEGCLHMTCAKCNHGFCWRCLKSWKPNHKD [C6L], for which the abundance fitness is -0.295 ± 0.12.

Take KRCPSNQAPIEKNEGCLHMTCAKCNHGFCWRCLKSWKPNHKD [C6N]: the abundance fitness is 0.056 ± 0.31.

On to KRCPSAQAPIEKNEGCLHMTCAKCNHGFCWRCLKSWKPNHKD [C6A], for which the abundance fitness was -0.029 ± 0.096.

In the case of KRCPSIQAPIEKNEGCLHMTCAKCNHGFCWRCLKSWKPNHKD [C6I], the abundance fitness is -0.419 ± 0.18.

On to KRCPSRQAPIEKNEGCLHMTCAKCNHGFCWRCLKSWKPNHKD [C6R], for which the abundance fitness was -0.612 ± 0.092.

As for KRCPSDQAPIEKNEGCLHMTCAKCNHGFCWRCLKSWKPNHKD [C6D], the abundance fitness is -0.091 ± 0.13.

For the variant KRCPSHQAPIEKNEGCLHMTCAKCNHGFCWRCLKSWKPNHKD [C6H], the abundance fitness was -0.222 ± 0.11.

Regarding KRCPSVQAPIEKNEGCLHMTCAKCNHGFCWRCLKSWKPNHKD [C6V], the abundance fitness is -0.383 ± 0.087.

Turning to KRCPSKQAPIEKNEGCLHMTCAKCNHGFCWRCLKSWKPNHKD [C6K], the abundance fitness is -0.515 ± 0.19.

Take KRCPSYQAPIEKNEGCLHMTCAKCNHGFCWRCLKSWKPNHKD [C6Y]: the abundance fitness is -0.518 ± 0.15.

Turning to KRCPSGQAPIEKNEGCLHMTCAKCNHGFCWRCLKSWKPNHKD [C6G], the abundance fitness was -0.126 ± 0.079.

Take KRCPSPQAPIEKNEGCLHMTCAKCNHGFCWRCLKSWKPNHKD [C6P]: the abundance fitness is -0.639 ± 0.15.

In the case of KRCPSCDAPIEKNEGCLHMTCAKCNHGFCWRCLKSWKPNHKD [Q7D], the abundance fitness is 0.538 ± 0.24.

As to KRCPSCTAPIEKNEGCLHMTCAKCNHGFCWRCLKSWKPNHKD [Q7T], the abundance fitness was -0.073 ± 0.28.

Take KRCPSCPAPIEKNEGCLHMTCAKCNHGFCWRCLKSWKPNHKD [Q7P]: the abundance fitness was -0.18 ± 0.12.

With KRCPSCEAPIEKNEGCLHMTCAKCNHGFCWRCLKSWKPNHKD [Q7E], the abundance fitness came to 0.089 ± 0.11.

KRCPSCIAPIEKNEGCLHMTCAKCNHGFCWRCLKSWKPNHKD [Q7I]: the abundance fitness was -0.346 ± 0.34.

Turning to KRCPSCGAPIEKNEGCLHMTCAKCNHGFCWRCLKSWKPNHKD [Q7G], the abundance fitness was 0.258 ± 0.079.

As for KRCPSCAAPIEKNEGCLHMTCAKCNHGFCWRCLKSWKPNHKD [Q7A], the abundance fitness was -0.064 ± 0.15.

Take KRCPSCVAPIEKNEGCLHMTCAKCNHGFCWRCLKSWKPNHKD [Q7V]: the abundance fitness is -0.198 ± 0.11.

KRCPSCSAPIEKNEGCLHMTCAKCNHGFCWRCLKSWKPNHKD [Q7S]: the abundance fitness is -0.406 ± 0.17.

For the variant KRCPSCCAPIEKNEGCLHMTCAKCNHGFCWRCLKSWKPNHKD [Q7C], the abundance fitness is -0.025 ± 0.11.

Source of the values: the Human Domainome abundance scans (Beltran et al. 2025).
